# Publication PMC4218953
# Experiments:
# [1] = molecular target: double-labelled SecYEG(Bpy/Trp) (E. coli) (UniProt P0AGA2)
# [2] = molecular target: double-labelled SecYEG(Bpy/Trp) (E. coli) (UniProt P0AGA2); remark: listed apart in the source
# [3] = molecular target: SecYEG translocon embedded in nanodiscs, labelled for FRET titrations (E. coli) (UniProt P0AGA2); assay: FRET or BRET; titration of nanodisc-embedded translocon with vacant ribosomes or Lep75-RNC (Supplementary Fig. 3); FRET between labels in the translocon and the ribosome is told for panel c; buffer A (20 mM HEPES pH 7.5, 70 mM NH4Cl, 30 mM KCl, 7 mM MgCl2, 10% glycerol), 25 °C
# [4] = molecular target: SecYEG translocon embedded in nanodiscs, labelled for FRET titrations (E. coli) (UniProt P0AGA2); assay: FRET or BRET; titration monitoring FRET between labels in the translocon and the ribosome, at the lower temperature (4 °C)
# Chain of DsbA100-RNC (P0AEG4 whole entry, looked up): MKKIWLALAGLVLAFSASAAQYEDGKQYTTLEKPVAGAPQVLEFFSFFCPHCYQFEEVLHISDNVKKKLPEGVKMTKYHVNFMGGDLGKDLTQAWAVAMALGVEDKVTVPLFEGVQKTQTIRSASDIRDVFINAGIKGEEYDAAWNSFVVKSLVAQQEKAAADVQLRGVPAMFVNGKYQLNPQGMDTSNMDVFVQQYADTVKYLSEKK
substance,measurement,setting,value
DsbA100-RNC (from UniProt P0AEG4 1-208) (complex),"increase of Bpy fluorescence of nanodisc-embedded SecYEG(Bpy/Trp) (50 nM) on addition of DsbA100-RNC (200 nM), 25 °C",[1],> 20%
TolB100-RNC (from UniProt P0A855 1-430) (complex),"increase of Bpy fluorescence of nanodisc-embedded SecYEG(Bpy/Trp) (50 nM) on addition of TolB100-RNC (200 nM), 25 °C",[1],> 20%
Lep75-RNC (ribosome-nascent-chain complex carrying 75 N-terminal amino acids of leader peptidase) (from UniProt P00803 1-75),"increase of Bpy fluorescence of nanodisc-embedded SecYEG(Bpy/Trp) (50 nM) on addition of Lep75-RNC (200 nM), 25 °C (loss of PET quenching, lateral gate opening)",[2],30%
same,"net increase of Bpy fluorescence of SecYEG(Bpy/Trp) on Lep75-RNC binding, after the change seen with single-labelled SecYEG(Bpy), 25 °C",[2],25%
same,Kd,[3],10 nM
vacant 70S ribosomes from E. coli MRE600 (complex),"increase of Bpy fluorescence of nanodisc-embedded SecYEG(Bpy/Trp) (50 nM) on addition of vacant 70S ribosomes (200 nM), 25 °C (loss of PET quenching, lateral gate opening)",[2],15%
same,"increase of Bpy fluorescence of SecYEG(Bpy/Trp) solubilised with detergent (0.03% DDM, no nanodisc) on addition of non-translating ribosomes, 25 °C",[1],15%
same,Kd,[4],10 nM
same,Kd,[3],20 nM
